Experimental data published in PMC5716094.
Read-outs that look alike come from different tables or passages of the source.

T1: B-domain of TRF2 (human, UniProt Q15554 43-86)
T1 chain: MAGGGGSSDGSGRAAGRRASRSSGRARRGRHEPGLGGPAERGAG


What was measured:
B-domain of TRF2 = molecular target: T1, B-domain of TRF2; test: SAXS
ΔBTRF2 [1] = molecular target: T2, ΔBTRF2 (human, UniProt Q15554 87-542, del43-86); test: fluorescence anisotropy
TRF2 [2] = molecular target: T3, TRF2 (human, UniProt Q15554 43-542); test: fluorescence anisotropy
ΔBTRF2 [3] = molecular target: T2, ΔBTRF2; test: fluorescence anisotropy; remark: listed apart in the source
TRF2 [4] = molecular target: T3, TRF2; test: fluorescence anisotropy; remark: listed apart in the source

T2 sequence (Q15554 87-542, stated change not applied): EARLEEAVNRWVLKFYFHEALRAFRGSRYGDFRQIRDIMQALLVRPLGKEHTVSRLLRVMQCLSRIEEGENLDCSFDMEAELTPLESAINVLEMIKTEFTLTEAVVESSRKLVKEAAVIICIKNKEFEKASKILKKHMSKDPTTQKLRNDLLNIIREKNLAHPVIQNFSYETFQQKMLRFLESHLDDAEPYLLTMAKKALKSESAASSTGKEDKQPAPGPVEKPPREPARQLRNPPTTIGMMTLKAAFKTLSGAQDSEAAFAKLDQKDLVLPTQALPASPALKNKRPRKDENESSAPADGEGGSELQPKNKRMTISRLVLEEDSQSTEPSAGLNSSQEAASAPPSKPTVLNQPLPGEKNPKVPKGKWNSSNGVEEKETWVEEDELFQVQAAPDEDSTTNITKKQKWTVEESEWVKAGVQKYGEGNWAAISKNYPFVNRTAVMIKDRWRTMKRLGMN

Binder	binding result (B-domain of TRF2)	binding result (ΔBTRF2 [1])	binding signal (TRF2 [2]) [fold lower Kd than ΔBTRF2]	binding signal (ΔBTRF2 [3]) [fold higher Kd than TRF2]	binding signal (TRF2 [4]) [fold lower Kd than ΔBTRF2]
R2 duplex (dsDNA) DNA 1: GTTAGGGTTAGGGTTAG DNA 2: CTAACCCTAACCCTAAC	binds	binds	~2	–	–
R5 duplex (dsDNA) DNA 1: GTTAGGGTTAGGGTTAGGGTTAGGGTTAGGGTTAG DNA 2: CTAACCCTAACCCTAACCCTAACCCTAACCCTAAC	–	–	–	~2	~2
